According to patent publication US5955420:
pEC50, pKd: −log10 of the molar value.

What was measured:
[1] = target: recombinant human gas6 (human); assay: 125I-Rse-IgG and purified gas6, displaced by unlabeled Rse-IgG, barium chloride coprecipitation
[2] = target: Rse ligand (Rse-L) in fetal bovine serum, unpurified or Q-Sepharose enriched (bovine) (UniProt P07224); assay: Scatchard analysis, 125I-Rse-IgG displaced by unlabeled Rse-IgG on CMK11-5 membranes, 1% FBS
[3] = target: Rse ligand (Rse-L) in fetal bovine serum, unpurified or Q-Sepharose enriched (bovine) (UniProt P07224); assay: Scatchard analysis, 125I-Rse-IgG displaced by unlabeled Rse-IgG on CMK11-5 membranes, 10% FBS
[4] = target: Rse-IgG fusion protein (extracellular domain of human Rse followed by the Fc portion of human IgG) (human) (UniProt Q06418); assay: 125I-Rse-IgG binding to CMK11-5 membranes
[5] = target: Rse-IgG fusion protein (extracellular domain of human Rse followed by the Fc portion of human IgG) (human) (UniProt Q06418); assay: 125I-Rse-IgG binding assay
[6] = target: Rse.gD (human Rse receptor with a C-terminal HSV-1 glycoprotein D flag) on dp12.CHO cells (human) (UniProt Q06418)
[7] = target: Rse.gD (human Rse receptor with a C-terminal HSV-1 glycoprotein D flag) on dp12.CHO cells (human) (UniProt Q06418); remark: listed apart in the source

**Q.** “Rse-IgG fusion protein (extracellular domain of human Rse followed by the Fc portion of human IgG) (from UniProt Q06418) (Fc fusion)” was tested. Which pKd [1] did it give?
**A.** 9.34

**Q.** And the pKd [2]?
**A.** 9.09

**Q.** What about the pKd [3] of the same substance?
**A.** 8.66

**Q.** human protein S (ligand) was tested. Which pEC50 [4] did it give?
**A.** < 6.60

**Q.** And the fold lower affinity than purified bovine protein S [5]?
**A.** 200 fold

**Q.** How did the pEC50 [4] turn out when “purified bovine protein S (Rse-L purified from fetal bovine serum) (from UniProt P07224) (ligand)” was run?
**A.** 8.92

**Q.** recombinant human gas6 (ligand) was tested. Which KIRA assay, specific activity (KIRA units/mg P) [6] did it give?
**A.** 1170

**Q.** For “gD.gas6.279-C.IgG (from UniProt P01857-1) (Fc fusion)”, which KIRA assay, EC50 for activation [7] is on record?
**A.** 0.4 nM

**Q.** How did the KIRA assay, specific activity (KIRA units/mg P) [6] turn out when “recombinant human gas6 lacking the gamma-carboxyl modification of glutamic acid (form 2) (ligand)” was run?
**A.** 3160
